# Reference: patent US20140213531A1 (POLYPHOR, published 2014)
# T1: Chymase, from human skin (human, UniProt P23946 22-247)
# T1 construct: purified natural enzyme, bought
# T1 sequence (looked up): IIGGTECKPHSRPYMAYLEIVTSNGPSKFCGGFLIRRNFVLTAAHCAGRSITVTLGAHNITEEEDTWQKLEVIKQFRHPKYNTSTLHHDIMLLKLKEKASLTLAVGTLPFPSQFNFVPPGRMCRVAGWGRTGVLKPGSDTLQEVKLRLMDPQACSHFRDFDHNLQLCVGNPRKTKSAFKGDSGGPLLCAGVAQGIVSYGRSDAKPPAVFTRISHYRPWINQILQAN
# T2: CathepsinG, from human neutrophils (human, UniProt P08311 21-244)
# T2 construct: purified natural enzyme, bought
# T2 sequence (looked up): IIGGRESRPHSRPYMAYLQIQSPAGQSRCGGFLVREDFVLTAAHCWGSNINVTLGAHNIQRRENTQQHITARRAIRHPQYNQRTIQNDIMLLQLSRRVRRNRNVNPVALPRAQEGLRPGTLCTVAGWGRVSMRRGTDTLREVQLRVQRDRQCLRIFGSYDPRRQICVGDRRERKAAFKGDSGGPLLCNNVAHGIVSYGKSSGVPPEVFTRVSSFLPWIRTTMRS
# Legend:
# Assay in all cases: enzyme inhibition, pNA substrate
# [1] = biological target: T3, Urokinase from human urine (human, UniProt P00749 21-431, limits assumed)
# T3 construct: purified natural enzyme, bought
# [2] = biological target: Thrombin, from Human Plasma, high activity (human, UniProt P00734 328-622)
# [3] = biological target: T4, Chymotrypsin, from human pancreas (human, UniProt P17538 19-263)
# T4 construct: purified natural enzyme, bought
# T4 sequence (P17538 19-263): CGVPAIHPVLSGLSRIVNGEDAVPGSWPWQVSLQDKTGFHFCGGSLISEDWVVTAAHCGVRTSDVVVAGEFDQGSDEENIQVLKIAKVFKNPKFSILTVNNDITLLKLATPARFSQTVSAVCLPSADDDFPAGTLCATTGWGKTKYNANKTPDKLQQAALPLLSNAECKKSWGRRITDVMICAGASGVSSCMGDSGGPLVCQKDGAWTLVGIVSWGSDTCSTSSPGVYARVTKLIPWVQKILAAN
# Chymase, from human skin = biological target: T1, Chymase, from human skin
# [4] = biological target: T2, CathepsinG, from human neutrophils
# [5] = biological target: T5, Coagulation Factor Xa, from uman plasma (human, UniProt P00742 41-179; P00742 235-488, limits assumed)
# T5 construct: purified natural enzyme, bought; also called FXa
# T5 sequence (P00742 41-179 limits assumed, chain 1 of 2): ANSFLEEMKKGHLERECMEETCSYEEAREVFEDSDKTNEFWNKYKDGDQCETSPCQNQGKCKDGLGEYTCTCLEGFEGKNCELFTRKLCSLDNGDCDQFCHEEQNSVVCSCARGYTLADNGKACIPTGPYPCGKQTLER
# T5 sequence (P00742 235-488 limits assumed, chain 2 of 2): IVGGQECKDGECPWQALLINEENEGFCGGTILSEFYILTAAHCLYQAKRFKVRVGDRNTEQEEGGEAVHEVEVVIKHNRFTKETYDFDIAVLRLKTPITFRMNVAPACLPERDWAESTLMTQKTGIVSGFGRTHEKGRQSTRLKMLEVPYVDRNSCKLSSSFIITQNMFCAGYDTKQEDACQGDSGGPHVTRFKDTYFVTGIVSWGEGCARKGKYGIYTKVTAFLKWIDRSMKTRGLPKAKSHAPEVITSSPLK
# [6] = biological target: T6, Trypsin, Iodination grade, from human pancreas (human, UniProt P07477 24-247)
# T6 construct: purified natural enzyme, bought
# [7] = biological target: T7, Tryptase, from human lung (human, UniProt Q15661 31-275, limits assumed)
# T7 construct: purified natural enzyme, bought
# T7 sequence (Q15661 31-275 limits assumed): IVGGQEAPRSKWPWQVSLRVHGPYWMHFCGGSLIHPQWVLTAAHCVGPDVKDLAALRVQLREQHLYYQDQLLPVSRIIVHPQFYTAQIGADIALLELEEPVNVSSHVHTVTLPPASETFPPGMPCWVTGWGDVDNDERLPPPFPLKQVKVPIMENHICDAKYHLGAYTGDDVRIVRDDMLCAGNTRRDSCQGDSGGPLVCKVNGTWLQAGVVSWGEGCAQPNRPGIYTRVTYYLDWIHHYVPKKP
Binder,% inhibition at 100 µM [1] [%],% inhibition at 100 µM [2] [%],% inhibition at 100 µM [3] [%],"% inhibition at 100 µM (Chymase, from human skin) [%]",% inhibition at 100 µM [4] [%],% inhibition at 100 µM [5] [%],% inhibition at 100 µM [6] [%],% inhibition at 100 µM [7] [%]
"XCTASXPPQCQ (HELM PEPTIDE1{[O=C([C@H](CCc1ccccc1)N[*:1])[*:2]].C.T.A.S.[CCCCCCCC[C@H](N[*:1])C(=O)[*:2]].P.P.Q.C.Q.[dP].P}$PEPTIDE1,PEPTIDE1,2:R3-10:R3|PEPTIDE1,PEPTIDE1,1:R1-13:R2$$$V2.0; SMILES CCCCCCCC[C@@H]1NC(=O)[C@H](CO)NC(=O)[C@H](C)NC(=O)[C@H]([C@@H](C)O)NC(=O)[C@@H]2CSSC[C@H](NC(=O)[C@H](CCC(N)=O)NC(=O)[C@@H]3CCCN3C(=O)[C@@H]3CCCN3C1=O)C(=O)N[C@@H](CCC(N)=O)C(=O)N1CCC[C@@H]1C(=O)N1CCC[C@H]1C(=O)N[C@@H](CCc1ccccc1)C(=O)N2) [Example 153]",16,16,84,0,56,11,–,–
"XCTASXPPQCF (HELM PEPTIDE1{[O=C([C@H](CCc1ccccc1)N[*:1])[*:2]].C.T.A.S.[Cha].P.P.Q.C.F.[dP].P}$PEPTIDE1,PEPTIDE1,2:R3-10:R3|PEPTIDE1,PEPTIDE1,1:R1-13:R2$$$V2.0; SMILES C[C@@H]1NC(=O)[C@H]([C@@H](C)O)NC(=O)[C@@H]2CSSC[C@H](NC(=O)[C@H](CCC(N)=O)NC(=O)[C@@H]3CCCN3C(=O)[C@@H]3CCCN3C(=O)[C@H](CC3CCCCC3)NC(=O)[C@H](CO)NC1=O)C(=O)N[C@@H](Cc1ccccc1)C(=O)N1CCC[C@@H]1C(=O)N1CCC[C@H]1C(=O)N[C@@H](CCc1ccccc1)C(=O)N2, also called Ex. 155) [Example 155]",12,19,83,–,52,–,18,30

# Continued, values first:
% inhibition at 100 µM [1] [%],% inhibition at 100 µM [2] [%],% inhibition at 100 µM [3] [%],"% inhibition at 100 µM (Chymase, from human skin) [%]",% inhibition at 100 µM [4] [%],% inhibition at 100 µM [5] [%],% inhibition at 100 µM [6] [%],% inhibition at 100 µM [7] [%],Binder
10,–,93,0,55,–,–,13,"XCTASXPPQCQ (HELM PEPTIDE1{[O=C([C@H](CCc1ccccc1)N[*:1])[*:2]].C.T.A.S.[Cha].P.P.Q.C.Q.[dP].P}$PEPTIDE1,PEPTIDE1,2:R3-10:R3|PEPTIDE1,PEPTIDE1,1:R1-13:R2$$$V2.0; SMILES C[C@@H]1NC(=O)[C@H]([C@@H](C)O)NC(=O)[C@@H]2CSSC[C@H](NC(=O)[C@H](CCC(N)=O)NC(=O)[C@@H]3CCCN3C(=O)[C@@H]3CCCN3C(=O)[C@H](CC3CCCCC3)NC(=O)[C@H](CO)NC1=O)C(=O)N[C@@H](CCC(N)=O)C(=O)N1CCC[C@@H]1C(=O)N1CCC[C@H]1C(=O)N[C@@H](CCc1ccccc1)C(=O)N2) [Example 158]"
12,17,86,–,54,–,–,15,"XCTASIPPQCY (HELM PEPTIDE1{[CCCCCCCC[C@H](N[*:1])C(=O)[*:2]].C.T.A.S.I.P.P.Q.C.Y.[dP].Q}$PEPTIDE1,PEPTIDE1,2:R3-10:R3|PEPTIDE1,PEPTIDE1,1:R1-13:R2$$$V2.0; SMILES CCCCCCCC[C@@H]1NC(=O)[C@H](CCC(N)=O)NC(=O)[C@H]2CCCN2C(=O)[C@H](Cc2ccc(O)cc2)NC(=O)[C@@H]2CSSC[C@H](NC1=O)C(=O)N[C@@H]([C@@H](C)O)C(=O)N[C@@H](C)C(=O)N[C@@H](CO)C(=O)N[C@@H]([C@@H](C)CC)C(=O)N1CCC[C@H]1C(=O)N1CCC[C@H]1C(=O)N[C@@H](CCC(N)=O)C(=O)N2, also called Ex. 177) [Example 177]"
